The values below come from EP4782464A1 (Nanjing Legend Biotech Co., Ltd., dated 2026).

Assay [1] has as its target human GCC (guanylyl cyclase C, GUCY2C) on cells (human) (UniProt P25092). Kind of assay: flow cytometry, B cell clone supernatant on Dubca-human GCC.Luc cells.
Assay [2] concerns the target mouse GCC (guanylyl cyclase C, GUCY2C) on cells (mouse) (UniProt Q3UWA6). The assay can be described thus: flow cytometry, B cell clone supernatant on Dubca-mouse GCC.Luc cells.
The target in assay [3] is T1, His-tagged human GUCY2C/Guanylyl cyclase C protein (ACRO GUC-H52H5) (human, UniProt P25092 24-430).
T1 construct: Bought protein; also called human GCC-his protein; human GCC-his; not shown: His tag
Kind of assay: ELISA, plate coated with human GCC-his protein at 1 µg/mL.

In assay [4] the target is T2, human GCC (guanylyl cyclase C, GUCY2C) on cells (human, UniProt P25092 24-1073).
T2 construct: whole, on cells; also called Dubca-human GCC.Luc
Kind of assay: flow cytometry on 293T-human GCC.Luc cells.

In assay [5] the target is T3, His-tagged mouse GUCY2C/guanylyl cyclase C protein (ACRO GUC-M52H3) (mouse, UniProt Q3UWA6 20-433, limits assumed).
T3 construct: Bought protein; also called mouse GCC-his protein; mouse GCC-his; not shown: His tag
T3 sequence (looked up): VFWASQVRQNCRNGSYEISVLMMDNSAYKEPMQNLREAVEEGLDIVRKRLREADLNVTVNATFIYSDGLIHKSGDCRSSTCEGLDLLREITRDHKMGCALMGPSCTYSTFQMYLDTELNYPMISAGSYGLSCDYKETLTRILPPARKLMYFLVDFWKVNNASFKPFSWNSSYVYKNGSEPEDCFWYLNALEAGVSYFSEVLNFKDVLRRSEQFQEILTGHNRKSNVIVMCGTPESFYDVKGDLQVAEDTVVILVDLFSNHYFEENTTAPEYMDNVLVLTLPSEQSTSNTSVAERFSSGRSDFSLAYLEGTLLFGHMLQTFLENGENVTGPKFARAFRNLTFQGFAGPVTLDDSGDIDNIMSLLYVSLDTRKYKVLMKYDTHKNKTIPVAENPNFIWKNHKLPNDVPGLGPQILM
The assay can be described thus: ELISA, plate coated with mouse GCC-his protein at 1 µg/mL.

Assay [6] has as its target T4, mouse GCC (guanylyl cyclase C, GUCY2C) on cells (mouse, UniProt Q3UWA6 20-1072).
T4 construct: whole, on cells; also called Dubca-mouse GCC.Luc
T4 sequence (looked up): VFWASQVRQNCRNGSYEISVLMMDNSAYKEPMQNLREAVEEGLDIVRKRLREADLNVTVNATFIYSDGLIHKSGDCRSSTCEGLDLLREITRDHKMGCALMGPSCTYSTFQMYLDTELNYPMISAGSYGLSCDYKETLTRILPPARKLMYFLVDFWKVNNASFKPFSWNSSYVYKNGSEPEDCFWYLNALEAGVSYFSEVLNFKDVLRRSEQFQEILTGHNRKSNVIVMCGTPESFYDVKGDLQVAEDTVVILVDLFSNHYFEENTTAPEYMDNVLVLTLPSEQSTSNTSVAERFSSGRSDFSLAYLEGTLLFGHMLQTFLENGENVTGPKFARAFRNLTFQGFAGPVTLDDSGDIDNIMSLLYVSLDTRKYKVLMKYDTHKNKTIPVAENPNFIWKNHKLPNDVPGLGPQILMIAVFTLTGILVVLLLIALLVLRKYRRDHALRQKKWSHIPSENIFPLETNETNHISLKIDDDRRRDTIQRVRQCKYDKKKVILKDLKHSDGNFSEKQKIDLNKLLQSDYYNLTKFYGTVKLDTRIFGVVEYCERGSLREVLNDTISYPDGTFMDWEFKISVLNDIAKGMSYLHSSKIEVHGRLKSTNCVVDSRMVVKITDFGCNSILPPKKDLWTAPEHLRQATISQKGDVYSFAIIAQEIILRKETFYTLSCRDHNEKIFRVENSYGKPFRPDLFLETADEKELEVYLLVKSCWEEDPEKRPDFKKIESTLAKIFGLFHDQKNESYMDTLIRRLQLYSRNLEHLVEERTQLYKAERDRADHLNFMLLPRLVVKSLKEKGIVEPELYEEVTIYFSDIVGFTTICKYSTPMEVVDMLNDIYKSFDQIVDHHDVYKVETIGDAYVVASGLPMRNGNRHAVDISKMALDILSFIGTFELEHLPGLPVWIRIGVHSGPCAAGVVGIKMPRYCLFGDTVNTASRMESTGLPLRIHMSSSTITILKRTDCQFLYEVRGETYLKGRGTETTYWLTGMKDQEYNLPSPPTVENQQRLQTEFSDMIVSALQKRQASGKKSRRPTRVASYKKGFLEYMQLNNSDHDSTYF
The assay can be described thus: flow cytometry on 293T-mouse GCC.Luc cells.

Assay [7] has as its target T2, human GCC (guanylyl cyclase C, GUCY2C) …. Kind of assay: flow cytometry, B cell clone supernatant on Dubca-human GCC.Luc cells.

T2 sequence (P25092 24-1073): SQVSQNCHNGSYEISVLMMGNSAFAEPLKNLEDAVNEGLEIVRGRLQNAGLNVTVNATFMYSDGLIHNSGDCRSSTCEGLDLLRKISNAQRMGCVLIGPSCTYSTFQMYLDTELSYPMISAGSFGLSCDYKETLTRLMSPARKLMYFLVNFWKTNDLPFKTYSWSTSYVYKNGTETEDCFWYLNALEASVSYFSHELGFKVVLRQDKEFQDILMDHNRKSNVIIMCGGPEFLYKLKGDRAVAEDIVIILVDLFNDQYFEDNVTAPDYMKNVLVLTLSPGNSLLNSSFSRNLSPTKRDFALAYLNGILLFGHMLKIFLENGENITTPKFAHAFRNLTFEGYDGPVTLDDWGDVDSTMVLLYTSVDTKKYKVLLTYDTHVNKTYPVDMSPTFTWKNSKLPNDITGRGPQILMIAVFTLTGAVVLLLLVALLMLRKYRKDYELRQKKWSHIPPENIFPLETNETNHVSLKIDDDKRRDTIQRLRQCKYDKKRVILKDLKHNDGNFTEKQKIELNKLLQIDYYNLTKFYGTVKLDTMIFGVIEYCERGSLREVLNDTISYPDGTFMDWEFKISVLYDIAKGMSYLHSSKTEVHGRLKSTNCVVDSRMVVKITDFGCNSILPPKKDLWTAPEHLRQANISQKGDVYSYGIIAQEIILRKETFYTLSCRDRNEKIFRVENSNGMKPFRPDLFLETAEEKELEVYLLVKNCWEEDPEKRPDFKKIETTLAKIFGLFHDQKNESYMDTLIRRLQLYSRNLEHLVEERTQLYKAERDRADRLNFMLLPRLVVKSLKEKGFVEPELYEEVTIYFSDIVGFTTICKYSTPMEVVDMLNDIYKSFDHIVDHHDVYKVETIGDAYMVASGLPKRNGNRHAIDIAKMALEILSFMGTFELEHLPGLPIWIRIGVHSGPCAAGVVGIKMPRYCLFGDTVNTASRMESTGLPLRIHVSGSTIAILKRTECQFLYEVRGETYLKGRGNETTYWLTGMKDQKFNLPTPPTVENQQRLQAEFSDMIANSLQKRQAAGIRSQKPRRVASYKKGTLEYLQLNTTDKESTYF
Chain of human GCC (guanylyl cyclase C, GUCY2C) on cells (human) (P25092 24-1073): as above
T1 sequence (P25092 24-430 limits assumed): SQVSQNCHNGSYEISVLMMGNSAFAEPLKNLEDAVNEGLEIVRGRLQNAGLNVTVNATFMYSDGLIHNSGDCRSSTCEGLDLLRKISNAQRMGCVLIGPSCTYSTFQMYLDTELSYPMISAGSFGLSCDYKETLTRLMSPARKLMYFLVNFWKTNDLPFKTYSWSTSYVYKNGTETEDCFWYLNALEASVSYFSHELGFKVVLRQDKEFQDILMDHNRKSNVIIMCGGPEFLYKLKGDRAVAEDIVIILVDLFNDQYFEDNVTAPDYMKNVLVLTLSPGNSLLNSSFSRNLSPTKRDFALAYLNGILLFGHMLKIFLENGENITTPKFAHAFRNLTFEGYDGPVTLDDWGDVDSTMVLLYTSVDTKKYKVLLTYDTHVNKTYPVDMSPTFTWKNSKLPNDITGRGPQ

B1: 22G5 (anti-GCC rabbit monoclonal antibody, B cell clone supernatant) (antibody, V domains shown)
VH: QSVEESGGRLVTPGTPLTLTCTVSGIDLSSYAMTWVRQAPGEGLEWIGTINTISTAYYANWAKGRFTISKTSTTVDLKIASPTTEDTATYFCARDHGYYDVWGQGTLVTVSS
VL: AQVLTQTPSSVSAAVGGTVTINCQASQSVYKNNYLSWYQQKPGQPPRLLIYDASTLASGVPSRFKGSGSGTQFTLTISGVQCDDAATYYCLGEFSCSSGDCAAFGGGTEVVVK
Regarding B1, the values for the percent of cells bound (flow cytometry) in assay [1] and in assay [2] were 99.9% and 74.1%, respectively.

B2: 22G5-Rabbit IgG (antibody, V domains shown)
VH: QSVEESGGRLVTPGTPLTLTCTVSGIDLSSYAMTWVRQAPGEGLEWIGTINTISTAYYANWAKGRFTISKTSTTVDLKIASPTTEDTATYFCARDHGYYDVWGQGTLVTVSS
VL: AQVLTQTPSSVSAAVGGTVTINCQASQSVYKNNYLSWYQQKPGQPPRLLIYDASTLASGVPSRFKGSGSGTQFTLTISGVQCDDAATYYCLGEFSCSSGDCAAFGGGTEVVVKG
notes: Recombinant rabbit IgG (IgG1k) expressed in HD CHO-S cells: 22G5 VH-Rabbit IgG CH1-CH2-CH3 and 22G5 VL-Rabbit IgG CL; also called 22G5-Rabbit IgG antibody; 22G5 antibody
With B2, the EC50 in assay [3] came to 619 pM; in assay [4], 102 pM; in assay [5], 824 pM; in assay [6], 1230 pM.

B3: 14C2 (anti-GCC rabbit monoclonal antibody, B cell clone supernatant) (antibody, V domains shown)
VH: QSLEESGGRLVTPGTPLTLTCTASGFSLSNYDMSWVRQAPGKGLEWIGTIEPDGSTWYASWAKGRLTISRTSTTVDLKMTSLTTEDTATYFCVRGAPDYSSNAFNLWGQGTLVTVSS
VL: DVVMTQTPSSVSEPVGGTVTIKCQASQSISSYLAWYQQKPGQPPKLLIYKASTLASGVSSQFRGSGSGTEFTLTISDLECADAATYYCQSTYAASNKLHFAFGGGTDVVVK
notes: Tested as native rabbit antibody in B cell clone supernatant; also called 14C2-B cells; clone 14C2
For the molecule B3, the binding result in assay [7] is recorded as “no binding”. This molecule showed a percent of cells bound (flow cytometry) in assay [2] of 99.2%.

B4: 48D5 (anti-GCC rabbit monoclonal antibody, B cell clone supernatant) (antibody, V domains shown)
VH: QSLEESGGRLVKPDETLTITCTVSGIDLSSNAISWVRQAPGEGLEYIGYIGTGGKSFYATWTKGRFTISKTSTTVDLKMTSLTNEDTAMYFCATGNTYLDLWGQGTLVTVSS
VL: AQVLTQTPSSVSAAVGGTVTINCQSSQSVYGADYLAWYQQKPGQPPKLLIYRASNLASGVPSRFRGSGSGTQFTLTISEVQCDDAATYYCQGTYISSDWLNPFGGGTEVVVK
Take B4: the results for the percent of cells bound (flow cytometry) in assay [1] and in assay [2] were 65.9% and 81.8%, respectively.

B5: 25E2 (anti-GCC rabbit monoclonal antibody, B cell clone supernatant) (antibody, V domains shown)
VH: QSVEESGGRLVTPGTPLTLTCTVSGIDLNKHAMGWVRQAPTKGLEWIGTIYVSTNTAYASWAKGRFTISKTSSTTVDLKMTSLTTEDTATYFCARGGGSSYYTGELYFNLWGQGTLVTVSS
VL: AYDMTQTPASVEVAVGGTVSIKCQVSQSIGSWLAWYQQKPGQPPKLLIYSASTLASGVSSRFKGSGSGTEFTLTISDLACVDAATYYCQSYSSASTTAFGGGTEVVVR
Regarding B5, the percent of cells bound (flow cytometry) in assay [1] stood at 95.1%; in assay [2], 95.4%.

B6: PF0098-Rabbit IgG (antibody, V domains shown)
VH: QVQLQQPGAELVKPGASVKLSCKASGYTFTSYWMHWVKQRPGQGLEWIGEIKPSNGLTNYIEKFKNKATLTVDKSATTAYMQLSSLTAEDSAVYYCTRTITTTEGYWFFDVWGAGTTVTVSS
VL: DIVLTQSPASLAVSLGQRATISCRASESVDYYGTSLMQWYQQKPGQPPKLLIYAASNVESGVPARFSGSGSGTDFSLNIHPVEEDDIAMYFCQQTRKVYTFGGGTKLEIKG
notes: also called PF0098-Rabbit IgG antibody
Consider B6, for which the EC50 in assay [3] turned out to be 671 pM; in assay [4] it was 25.4 pM; in assay [5] it was 899 pM; in assay [6], 284 pM.

B7: 21E1 (anti-GCC rabbit monoclonal antibody, B cell clone supernatant) (antibody, V domains shown)
VH: QSLEESGGRLVTPGTPLTLTCTVSGIDLSSYDMTWVRQAPGKGLEWIGSIGDDGNTYYATWAKGRFTISKTSTTVHLKMTSLTTEDTATYFCARGWSFCKSWGQGTLVTVSS
VL: AQVLTQTASPVSAAVGGTVTISCQSSQSVANNNLAWYQQKPGQPPSPLIYKASTLESGVPSRFSGSGSGTQFALTISGVQCDDAATYYCQGAYRSGIMAFGGGTEVVVR
Turning to B7, the percent of cells bound (flow cytometry) was 95.4% in assay [1] and 99.7% in assay [2].
